B1: Q328K (protein)
chain: GFGDVGALESLRGNADLAYILSMEPCGHCLIINNVNFCRESGLRTRTGSNIDCEKLRRRFSSLHFMVEVKGDLTAKKMVLALLELAQQDHGALDCCVVVILSHGCQASHLQFPGAVYGTDGCPVSVEKIVNIFNGTSCPSLGGKPKLFFIQACGGEQKDHGFEVASTSPEDESPGSNPEPDATPFQEGLRTFDKLDAISSLPTPSDIFVSYSTFPGFVSWRDPKSGSWYVETLDDIFEQWAHSEDLQSLLLRVANAVSVKGIYKQMPGCFNFLRKKLFFKTS
B2: F404A (protein)
chain: GFGDVGALESLRGNADLAYILSMEPCGHCLIINNVNFCRESGLRTRTGSNIDCEKLRRRFSSLHFMVEVKGDLTAKKMVLALLELAQQDHGALDCCVVVILSHGCQASHLQFPGAVYGTDGCPVSVEKIVNIFNGTSCPSLGGKPKLFFIQACGGEQKDHGFEVASTSPEDESPGSNPEPDATPFQEGLRTFDQLDAISSLPTPSDIFVSYSTFPGFVSWRDPKSGSWYVETLDDIFEQWAHSEDLQSLLLRVANAVSVKGIYKQMPGCANFLRKKLFFKTS
B3: D330A-T317E (protein)
chain: GFGDVGALESLRGNADLAYILSMEPCGHCLIINNVNFCRESGLRTRTGSNIDCEKLRRRFSSLHFMVEVKGDLTAKKMVLALLELAQQDHGALDCCVVVILSHGCQASHLQFPGAVYGTDGCPVSVEKIVNIFNGTSCPSLGGKPKLFFIQACGGEQKDHGFEVASTSPEDESPGSNPEPDAEPFQEGLRTFDQLAAISSLPTPSDIFVSYSTFPGFVSWRDPKSGSWYVETLDDIFEQWAHSEDLQSLLLRVANAVSVKGIYKQMPGCFNFLRKKLFFKTS
B4: Q328R (protein)
chain: GFGDVGALESLRGNADLAYILSMEPCGHCLIINNVNFCRESGLRTRTGSNIDCEKLRRRFSSLHFMVEVKGDLTAKKMVLALLELAQQDHGALDCCVVVILSHGCQASHLQFPGAVYGTDGCPVSVEKIVNIFNGTSCPSLGGKPKLFFIQACGGEQKDHGFEVASTSPEDESPGSNPEPDATPFQEGLRTFDRLDAISSLPTPSDIFVSYSTFPGFVSWRDPKSGSWYVETLDDIFEQWAHSEDLQSLLLRVANAVSVKGIYKQMPGCFNFLRKKLFFKTS
B5: F406L (protein)
chain: GFGDVGALESLRGNADLAYILSMEPCGHCLIINNVNFCRESGLRTRTGSNIDCEKLRRRFSSLHFMVEVKGDLTAKKMVLALLELAQQDHGALDCCVVVILSHGCQASHLQFPGAVYGTDGCPVSVEKIVNIFNGTSCPSLGGKPKLFFIQACGGEQKDHGFEVASTSPEDESPGSNPEPDATPFQEGLRTFDQLDAISSLPTPSDIFVSYSTFPGFVSWRDPKSGSWYVETLDDIFEQWAHSEDLQSLLLRVANAVSVKGIYKQMPGCFNLLRKKLFFKTS
B6: D330A-Y153F (protein)
chain: GFGDVGALESLRGNADLAFILSMEPCGHCLIINNVNFCRESGLRTRTGSNIDCEKLRRRFSSLHFMVEVKGDLTAKKMVLALLELAQQDHGALDCCVVVILSHGCQASHLQFPGAVYGTDGCPVSVEKIVNIFNGTSCPSLGGKPKLFFIQACGGEQKDHGFEVASTSPEDESPGSNPEPDATPFQEGLRTFDQLAAISSLPTPSDIFVSYSTFPGFVSWRDPKSGSWYVETLDDIFEQWAHSEDLQSLLLRVANAVSVKGIYKQMPGCFNFLRKKLFFKTS
B7: F404S (protein)
chain: GFGDVGALESLRGNADLAYILSMEPCGHCLIINNVNFCRESGLRTRTGSNIDCEKLRRRFSSLHFMVEVKGDLTAKKMVLALLELAQQDHGALDCCVVVILSHGCQASHLQFPGAVYGTDGCPVSVEKIVNIFNGTSCPSLGGKPKLFFIQACGGEQKDHGFEVASTSPEDESPGSNPEPDATPFQEGLRTFDQLDAISSLPTPSDIFVSYSTFPGFVSWRDPKSGSWYVETLDDIFEQWAHSEDLQSLLLRVANAVSVKGIYKQMPGCSNFLRKKLFFKTS
B8: D315A-D330A (protein)
chain: GFGDVGALESLRGNADLAYILSMEPCGHCLIINNVNFCRESGLRTRTGSNIDCEKLRRRFSSLHFMVEVKGDLTAKKMVLALLELAQQDHGALDCCVVVILSHGCQASHLQFPGAVYGTDGCPVSVEKIVNIFNGTSCPSLGGKPKLFFIQACGGEQKDHGFEVASTSPEDESPGSNPEPAATPFQEGLRTFDQLAAISSLPTPSDIFVSYSTFPGFVSWRDPKSGSWYVETLDDIFEQWAHSEDLQSLLLRVANAVSVKGIYKQMPGCFNFLRKKLFFKTS
B9: G402I (protein)
chain: GFGDVGALESLRGNADLAYILSMEPCGHCLIINNVNFCRESGLRTRTGSNIDCEKLRRRFSSLHFMVEVKGDLTAKKMVLALLELAQQDHGALDCCVVVILSHGCQASHLQFPGAVYGTDGCPVSVEKIVNIFNGTSCPSLGGKPKLFFIQACGGEQKDHGFEVASTSPEDESPGSNPEPDATPFQEGLRTFDQLDAISSLPTPSDIFVSYSTFPGFVSWRDPKSGSWYVETLDDIFEQWAHSEDLQSLLLRVANAVSVKGIYKQMPICFNFLRKKLFFKTS
B10: G402A (protein)
chain: GFGDVGALESLRGNADLAYILSMEPCGHCLIINNVNFCRESGLRTRTGSNIDCEKLRRRFSSLHFMVEVKGDLTAKKMVLALLELAQQDHGALDCCVVVILSHGCQASHLQFPGAVYGTDGCPVSVEKIVNIFNGTSCPSLGGKPKLFFIQACGGEQKDHGFEVASTSPEDESPGSNPEPDATPFQEGLRTFDQLDAISSLPTPSDIFVSYSTFPGFVSWRDPKSGSWYVETLDDIFEQWAHSEDLQSLLLRVANAVSVKGIYKQMPACFNFLRKKLFFKTS
B11: D330A-Y153A (protein)
chain: GFGDVGALESLRGNADLAAILSMEPCGHCLIINNVNFCRESGLRTRTGSNIDCEKLRRRFSSLHFMVEVKGDLTAKKMVLALLELAQQDHGALDCCVVVILSHGCQASHLQFPGAVYGTDGCPVSVEKIVNIFNGTSCPSLGGKPKLFFIQACGGEQKDHGFEVASTSPEDESPGSNPEPDATPFQEGLRTFDQLAAISSLPTPSDIFVSYSTFPGFVSWRDPKSGSWYVETLDDIFEQWAHSEDLQSLLLRVANAVSVKGIYKQMPGCFNFLRKKLFFKTS
B12: L329G (protein)
chain: GFGDVGALESLRGNADLAYILSMEPCGHCLIINNVNFCRESGLRTRTGSNIDCEKLRRRFSSLHFMVEVKGDLTAKKMVLALLELAQQDHGALDCCVVVILSHGCQASHLQFPGAVYGTDGCPVSVEKIVNIFNGTSCPSLGGKPKLFFIQACGGEQKDHGFEVASTSPEDESPGSNPEPDATPFQEGLRTFDQGDAISSLPTPSDIFVSYSTFPGFVSWRDPKSGSWYVETLDDIFEQWAHSEDLQSLLLRVANAVSVKGIYKQMPGCFNFLRKKLFFKTS
B13: ^402GCFNF^406AAAAA: Caspase-9 homodimerization domain mutant (SEQ ID NOS 95 and 99) (protein, UniProt P55211 1-416, looked up, variant G402A C403A F404A N405A F406A)
chain: MDEADRRLLRRCRLRLVEELQVDQLWDALLSRELFRPHMIEDIQRAGSGSRRDQARQLIIDLETRGSQALPLFISCLEDTGQDMLASFLRTNRQAAKLSKPTLENLTPVVLRPEIRKPEVLRPETPRPVDIGSGGFGDVGALESLRGNADLAYILSMEPCGHCLIINNVNFCRESGLRTRTGSNIDCEKLRRRFSSLHFMVEVKGDLTAKKMVLALLELAQQDHGALDCCVVVILSHGCQASHLQFPGAVYGTDGCPVSVEKIVNIFNGTSCPSLGGKPKLFFIQACGGEQKDHGFEVASTSPEDESPGSNPEPDATPFQEGLRTFDQLDAISSLPTPSDIFVSYSTFPGFVSWRDPKSGSWYVETLDDIFEQWAHSEDLQSLLLRVANAVSVKGIYKQMPAAAAALRKKLFFKTS
B14: ^402GCFNF^406QPTFT: Caspase-9 homodimerization domain mutant (SEQ ID NOS 95 and 102) (Casp-8) (protein, UniProt P55211 1-416, looked up, variant G402Q C403P F404T N405F F406T)
chain: MDEADRRLLRRCRLRLVEELQVDQLWDALLSRELFRPHMIEDIQRAGSGSRRDQARQLIIDLETRGSQALPLFISCLEDTGQDMLASFLRTNRQAAKLSKPTLENLTPVVLRPEIRKPEVLRPETPRPVDIGSGGFGDVGALESLRGNADLAYILSMEPCGHCLIINNVNFCRESGLRTRTGSNIDCEKLRRRFSSLHFMVEVKGDLTAKKMVLALLELAQQDHGALDCCVVVILSHGCQASHLQFPGAVYGTDGCPVSVEKIVNIFNGTSCPSLGGKPKLFFIQACGGEQKDHGFEVASTSPEDESPGSNPEPDATPFQEGLRTFDQLDAISSLPTPSDIFVSYSTFPGFVSWRDPKSGSWYVETLDDIFEQWAHSEDLQSLLLRVANAVSVKGIYKQMPQPTFTLRKKLFFKTS
B15: ^402GCFNF^406YCSTL: Caspase-9 homodimerization domain mutant (SEQ ID NOS 95 and 100) (Casp-2) (protein, UniProt P55211 1-416, looked up, variant G402Y F404S N405T F406L)
chain: MDEADRRLLRRCRLRLVEELQVDQLWDALLSRELFRPHMIEDIQRAGSGSRRDQARQLIIDLETRGSQALPLFISCLEDTGQDMLASFLRTNRQAAKLSKPTLENLTPVVLRPEIRKPEVLRPETPRPVDIGSGGFGDVGALESLRGNADLAYILSMEPCGHCLIINNVNFCRESGLRTRTGSNIDCEKLRRRFSSLHFMVEVKGDLTAKKMVLALLELAQQDHGALDCCVVVILSHGCQASHLQFPGAVYGTDGCPVSVEKIVNIFNGTSCPSLGGKPKLFFIQACGGEQKDHGFEVASTSPEDESPGSNPEPDATPFQEGLRTFDQLDAISSLPTPSDIFVSYSTFPGFVSWRDPKSGSWYVETLDDIFEQWAHSEDLQSLLLRVANAVSVKGIYKQMPYCSTLLRKKLFFKTS
B16: ^402GCFNF^406CIVSM: Caspase-9 homodimerization domain mutant (SEQ ID NOS 95 and 101) (Casp-3) (protein, UniProt P55211 1-416, looked up, variant G402C C403I F404V N405S F406M)
chain: MDEADRRLLRRCRLRLVEELQVDQLWDALLSRELFRPHMIEDIQRAGSGSRRDQARQLIIDLETRGSQALPLFISCLEDTGQDMLASFLRTNRQAAKLSKPTLENLTPVVLRPEIRKPEVLRPETPRPVDIGSGGFGDVGALESLRGNADLAYILSMEPCGHCLIINNVNFCRESGLRTRTGSNIDCEKLRRRFSSLHFMVEVKGDLTAKKMVLALLELAQQDHGALDCCVVVILSHGCQASHLQFPGAVYGTDGCPVSVEKIVNIFNGTSCPSLGGKPKLFFIQACGGEQKDHGFEVASTSPEDESPGSNPEPDATPFQEGLRTFDQLDAISSLPTPSDIFVSYSTFPGFVSWRDPKSGSWYVETLDDIFEQWAHSEDLQSLLLRVANAVSVKGIYKQMPCIVSMLRKKLFFKTS

test system: chimeric Caspase-9 polypeptide; assay: Caspase mutant classes and basal activity (Table 3); assay type: cell-based, human; conditions: class heading of Table 3
Sequence (as listed by the source, change not shown): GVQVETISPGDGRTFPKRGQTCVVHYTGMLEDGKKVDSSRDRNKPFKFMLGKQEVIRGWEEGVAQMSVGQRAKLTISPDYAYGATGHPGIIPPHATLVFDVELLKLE

Question: With B1 as the molecule, how does the “Basal Activity” value read?
Answer: The value was “Increased”.

Question: Which “Basal Activity” value does the source give for B2 here?
Answer: The value was “dead”.

Question: B3 was tested. Which “Basal Activity” value did it give?
Answer: The value was “dead”.

Question: For B4, which “Basal Activity” value is on record?
Answer: Its value is “Increased”.

Question: B5 was tested. Which “Basal Activity” value did it give?
Answer: Its value is “dead”.

Question: Which “Basal Activity” value does the source give for B6 here?
Answer: Its value is “dead”.

Question: How did the “Basal Activity” value turn out when B7 was run?
Answer: Its value is “dead”.

Question: B8 was tested. Which “Basal Activity” value did it give?
Answer: Its value is “dead”.

Question: For B9, which “Basal Activity” value is on record?
Answer: Its value is “dead”.

Question: How did the “Basal Activity” value turn out when B10 was run?
Answer: Its value is “dead”.

Question: B11 was tested. Which “Basal Activity” value did it give?
Answer: The value was “dead”.

Question: How did the “Basal Activity” value turn out when B12 was run?
Answer: The value was “Increased”.

Question: For B13, which “Basal Activity” value is on record?
Answer: Its value is “dead”.

Question: How did the “Basal Activity” value turn out when B14 was run?
Answer: Its value is “dead”.

Question: With B15 as the molecule, how does the “Basal Activity” value read?
Answer: The value was “dead”.

Question: How did the “Basal Activity” value turn out when B16 was run?
Answer: Its value is “dead”.
